Experimental data taken from article PMC4837482, “The complex binding mode of the peptide hormone H2 relaxin to its receptor RXFP1” (Nature Communications, 2016).
Numbering of substitutions follows the chain as printed.

Columns and labels:
Test in all cases: cAMP activity assay (pCRE β-galactosidase reporter), transfected HEK293T cells
Assay type in all cases: cell-based
RXFP1 M60A = molecular target: T1, RXFP1 M60A (Homo sapiens, UniProt Q9HBX9, M82A); details: construct M60A, ±s.e.m.
T1 construct: cells expressing full-length RXFP1 and mutants; expressed in transfected cells; host or cells: HEK293T
T1 sequence (Q9HBX9 23-757 M82A limits assumed): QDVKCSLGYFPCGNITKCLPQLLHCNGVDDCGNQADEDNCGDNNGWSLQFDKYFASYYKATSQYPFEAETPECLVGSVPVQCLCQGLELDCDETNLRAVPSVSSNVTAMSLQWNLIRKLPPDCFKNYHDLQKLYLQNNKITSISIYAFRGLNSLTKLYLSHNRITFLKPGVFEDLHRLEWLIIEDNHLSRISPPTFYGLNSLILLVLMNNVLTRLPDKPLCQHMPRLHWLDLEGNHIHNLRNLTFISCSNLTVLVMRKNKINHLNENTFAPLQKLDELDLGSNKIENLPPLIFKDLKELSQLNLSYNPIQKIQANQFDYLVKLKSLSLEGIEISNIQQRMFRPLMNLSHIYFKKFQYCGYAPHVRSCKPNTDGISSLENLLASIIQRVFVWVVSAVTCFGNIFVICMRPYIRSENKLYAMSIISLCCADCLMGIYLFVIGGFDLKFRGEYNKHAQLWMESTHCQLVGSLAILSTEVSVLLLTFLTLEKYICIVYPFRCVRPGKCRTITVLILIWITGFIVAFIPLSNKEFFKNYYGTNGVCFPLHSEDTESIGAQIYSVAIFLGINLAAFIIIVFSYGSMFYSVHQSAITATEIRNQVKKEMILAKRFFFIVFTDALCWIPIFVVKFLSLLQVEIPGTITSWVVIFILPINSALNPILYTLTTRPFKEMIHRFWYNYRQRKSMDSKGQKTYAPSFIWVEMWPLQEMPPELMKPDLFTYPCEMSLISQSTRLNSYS
Method in brief: (§1)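 Relaxin-stimulated cells go through overnight storage at −80 °C, two 10-min lysis steps at pH 8.0 with shaking, and chlorophenol red-β-D-galactopyranoside development. Output at 570 nm is scaled against the 5 μM Forskolin maximum.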

RXFP1 N43A = molecular target: T2, RXFP1 N43A (Homo sapiens, UniProt Q9HBX9, N65A); details: construct N43A, ±s.e.m.
T2 construct: transiently transfected human embryonic kidney (HEK) 293T cells expressing full-length RXFP1 and mutants; expressed in transfected cells; host or cells: HEK293T
T2 sequence (Q9HBX9 23-757 N65A limits assumed): T1 sequence (Q9HBX9 23-757 M82A limits assumed) with N43A, A60M
Method in brief: as §1

RXFP1 N43N44-AA = molecular target: T3, RXFP1 N43N44-AA (Homo sapiens, UniProt Q9HBX9, N65A/N66A)
T3 construct: transiently transfected human embryonic kidney (HEK) 293T cells expressing full-length RXFP1 and mutants; expressed in transfected cells; host or cells: HEK293T
T3 sequence (Q9HBX9 23-757 N65A/N66A limits assumed): T1 sequence (Q9HBX9 23-757 M82A limits assumed) with N43A, N44A, A60M
Method in brief: as §1

[1] = percentage of maximum response to 5 μM Forskolin

In the case of “H2 relaxin: two-chain 6-kDa peptide hormone structurally related to insulin; recombinant human gene-2 H2 relaxin provided by Corthera”, the “H2 relaxin pEC50” value (RXFP1 M60A; cAMP reporter) is reported as 11.20±0.03 (4), the “H2 relaxin Emax” value (RXFP1 M60A; [1]) is reported as 118.2±6.51 (4) % and the “H2 relaxin pEC50” value (RXFP1 N43A; cAMP reporter) is reported as 9.06±0.48 (4). For the same substance, the “H2 relaxin Emax” value (RXFP1 N43A; [1]) was 120.23±7.81 (4) %, the “loss of H2 relaxin-stimulated cAMP activity” value (RXFP1 N43N44-AA; N43A/N44A RXFP1 versus wild-type RXFP1) was 500 fold and the “H2 relaxin pEC50” value (RXFP1 N43N44-AA; construct N43N44-AA, cAMP reporter, ±s.e.m.) was 8.29±0.63 (3). The “H2 relaxin Emax” value (RXFP1 N43N44-AA; construct N43N44-AA, percentage of maximum response to 5 μM Forskolin, ±s.e.m.) was 118.90±12.81 (3) %.
